This test has as its target 7D8.RbIgG. Put plainly: SPR (Biacore).

B1: CyFcRH5 (receptor)
chain: QFVRTYKSHFLQPPWTTVFRGERVNLTCKGFGFYSSQKTKWYYRHLGKEISRETQKNTLEVQESGEYRCQAQGSPLSSPVSLDFSSASLILQAPLSVFEGDSVVLRCRAKAEVTLKTTIYKNENVLAFLNKSTDFHISHASLKDNGAYRCTGYKETCCLVSSNTVKIQVQESFTRPVLRVSSFQPISGSPVTLTCETQLSLERSDVPLQFCFFRNDQMLGSGCSLSPKFRITAMWSKDSGSYWCKAATMCYDTTSNSLRSWIQVLIPASHPVLTLSPEKALNFEGTKVKLHCETQEDSLRTLYKFYHDGVPLRYKSVRCEKGASISFSLTTEHSGNYYCTADNGHGAKPSEAVSLSVTVPVSRPVLTLSSAEDLISEGAKLTLHCEAQRGSLPIVYQFHHENASLGNRSAHSAGGVAISFSLTADHSGNYYCTANNGFGPQRSEAVSLSITVPVSRPVLTLSSAEALTFEGATVTLYCEVQRGSPRILYQFYHEDVPLGSNSTPSVGKVSFSFSLTAAHSGNYYCTADNGFGPQRSEAVSLFVTVPVSRPILTLRVPRAQAVVGDLLELRCEALRGSPPIMYWFYHEDVTLGSSSVPSGGEASFNLSLTAEHSGNYSCEANNGLVAQHSDTISLSVIVPVSRPILTFRAPRAQAVVGDLLELHCEALRGSSPILYWFYHEDVTLGKISAPSGGGAYFNLSLTTEHSGIYSCEADNGLEAQRSEMVTLKVAVPVSRPVLTLRAPRAQVAVGDLLELHCEALRGSPLILYQFYHEDVTLGNSSALSGGAFFNLSLTAEHGNYSCEADNGLGAQRSETVTLYLTGLTENRSGPVATG
Consider B1, for which binding was characterised by a dissociation constant (Kd) of 1.89 nM.

The values are drawn from patent US20160368985A1 (published 2016).
